In the RNAGym collection of RNA variant scans (doi:10.7554/elife.80360):

B1: CPEB3 Ribozyme (parent)
chain: GGGGGCCACAGCAGAAGCGUUCACGUCGCGGCCCCUGUCAGAUUCUGGUGAAUCUGCGAAUUCUGCUGU

Variants of: B1
Experiment: self-cleavage, relative activity (ratio to wild type); higher = more cleavage; co-transcriptional

Variant	self-cleavage
G1C U43G	0.205
G1C U43C	0.245
G1C U43A	0.202
G1A U38C	0.0492
G1U C33A	0.176
G1C A40C	0.231
G1C A40G	0.268
G1C U69A	0.182
G1A G3C	0.0286
G1A C29G	0.0465
G1A C29U	0.0423
G1C G48U	0.241
G1U C32G	0.09
G1U C32U	0.157
G1U C32A	0.201
G1A G37U	0.104
G1A G37C	0.0318
G1C A10G	0.21
G1A U36G	0.0321
G1A U36C	0.0487
G1A U36A	0.0492
G1C C27U	0.131
G1C C27G	0.124
G1C C27A	0.211

Variant	self-cleavage
G1C C39G	0.217
G1C C39U	0.227
G1A C33U	0.0123
G1A C33G	0.0474
G1C C66A	0.226
G1C C66U	0.172
G1C G2A	0.408
G1A G30A	0.0887
G1A G30C	0.0357
G1C U67A	0.193
G1C U67C	0.19
G1C C35A	0.069
G1C C35U	0.167
G1C C35G	0.161
G1A U20C	0.0855
G1A U20G	0.0728
G1A U20A	0.0538
G1U C6U	0.0906
G1U C6G	0.126
G1U C6A	0.0884
G1C A8C	0.221
G1C A8U	0.227
G1U C39A	0.123
G1U C39U	0.0961

Variant	self-cleavage
G1A U64A	0.134
G1A U64G	0.0694
G1C G14A	0.152
G1C G14U	0.164
G1U C18G	0.115
G1U C18U	0.104
G1U A40C	0.0668
G1U A60C	0.0797
G1C U49C	0.116
G1C U49G	0.275
G1C C63A	0.199
G1C C63U	0.164
G1A A10C	0.117
G1C G30C	0.174
G1C G30A	0.192
G1U A52U	0.129
G1U A52G	0.167
G1A G11A	0.136
G1A G11U	0.0575
G1C A51U	0.192
G1C A51C	0.149
G1A A52C	0.113
G1A A52G	0.0619
G1A A52U	0.0595

Variant	self-cleavage
G1C U36C	0.177
G1C U36A	0.0531
G1C U53G	0.232
G1C U53A	0.225
G1A A40U	0.0506
G1A A40C	0.028
G1U C54G	0.099
G1U C54A	0.116
G1C A23U	0.222
G1C A23C	0.25
G1C A23G	0.149
G1A G28U	0.0362
G1A G28C	0.0192
G1C U21C	0.184
G1C U21G	0.244
G1U A42C	0.0921
G1U A42U	0.0891
G1U A42G	0.0976
G1C U46C	0.248
G1U C22G	0.0638
G1U C22A	0.0628
G1U C22U	0.102
G1U A51G	0.126
G1U A51U	0.148

Variant	self-cleavage
G1U A51C	0.114
G1A C66G	0.0767
G1U C57G	0.0901
G1U C27A	0.0657
G1U C27G	0.0589
G1C C22G	0.0703
G1C C22A	0.0757
G1C G11C	0.165
G1C G11U	0.164
G1C G11A	0.14
G1A U61C	0.0531
G1C U62A	0.279
G1C U62G	0.177
G1A U21G	0.0454
G1A U21A	0.132
G1U C34G	0.123
G1U C34A	0.184
G1C C45G	0.182
G1C C45U	0.24
G1C C45A	0.252
G1A C32U	0.12
G1A C32A	0.0486
G1A C32G	0.0331
G1A A59U	0.0722

Variant	self-cleavage
G1A A59C	0.0603
G1A A59G	0.167
G1U C7A	0.0722
G1U C7G	0.127
G1C A60G	0.273
G1C A60C	0.0756
G1C G31C	0.0643
G1C G31A	0.272
G1C G31U	0.266
G1U C24G	0.0268
G1U C9U	0.219
G1U C9G	0.233
G1C A13U	0.155
G1C A13C	0.143
G1C A13G	0.183
G1C G5U	0.114
G1C A15C	0.266
G1C A15G	0.228
G1U A16C	0.022
G1A G31C	0.0308
G1A G31A	0.0627
G1A G56C	0.0841
G1A G56U	0.103
G1A G56A	0.0858

Variant	self-cleavage
G1C G37C	0.125
G1C G37U	0.101
G1A A15U	0.105
G1A A15C	0.113
G1A A15G	0.159
G1A A8U	0.0637
G1C A59C	0.27
G1C A59U	0.147
G1C A59G	0.26
G1A G50A	0.114
G1A G50U	0.0729
G1U A13U	0.122
G1A C18A	0.0308
G1A C18U	0.0601
G1A C18G	0.0371
G1A C12G	0.0843
G1A C12A	0.0768
G1A G14C	0.0574
G1A G14A	0.0754
G1U A15C	0.136
G1U A15G	0.191
G1C C6G	0.658
G1C C6A	0.26
